Here are results for one molecule from paper PMC11472053, “Structural basis of DNA recognition by BEN domain proteins reveals a role for oligomerization in unmethylated DNA selection by BANP” (Nucleic Acids Research, 2024).

The target of series [1] is T1, BANP DBD (human, UniProt Q8N9N5 361-519).
T1 sequence: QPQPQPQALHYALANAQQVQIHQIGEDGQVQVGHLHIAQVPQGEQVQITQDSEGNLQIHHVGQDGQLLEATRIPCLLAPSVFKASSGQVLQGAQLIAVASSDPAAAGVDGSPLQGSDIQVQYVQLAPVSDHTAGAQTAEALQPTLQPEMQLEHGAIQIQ
The experiment in a line: EMSA; ITC: 20 mM Tris pH 7.5, 200 mM NaCl, 2 mM beta-mercaptoethanol, 20 C; EMSA: 20 mM Tris pH 7.0, 200 mM NaCl, 2 mM DTT, 4 C, 1.2% agarose in TAE. Particulars: protein: recombinant; tags: His-SUMO or His-MBP, cleaved; blunt, self-complementary. A general note: In EMSA bound probe runs differently from free probe, usually more slowly.

In series [2] the target is T2, BANP BEN WT (human, UniProt Q8N9N5 205-325).
T2 sequence: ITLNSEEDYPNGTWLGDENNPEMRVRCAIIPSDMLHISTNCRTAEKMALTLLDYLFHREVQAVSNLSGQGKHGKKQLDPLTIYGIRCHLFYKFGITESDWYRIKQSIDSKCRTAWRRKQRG
The experiment in a line: ITC; text gives 2.5 uM; ITC: 20 mM Tris pH 7.5, 200 mM NaCl, 2 mM beta-mercaptoethanol, 20 C; EMSA: 20 mM Tris pH 7.0, 200 mM NaCl, 2 mM DTT, 4 C, 1.2% agarose in TAE. Particulars: protein: recombinant; tags: His-SUMO or His-MBP, cleaved; chain copies: 2; blunt, self-complementary. On the technique in general: ITC needs no label: the signal is the heat of the interaction.

Series [3] concerns the target T3, BANP full-length WT (human, UniProt Q8N9N5 1-519).
T3 sequence: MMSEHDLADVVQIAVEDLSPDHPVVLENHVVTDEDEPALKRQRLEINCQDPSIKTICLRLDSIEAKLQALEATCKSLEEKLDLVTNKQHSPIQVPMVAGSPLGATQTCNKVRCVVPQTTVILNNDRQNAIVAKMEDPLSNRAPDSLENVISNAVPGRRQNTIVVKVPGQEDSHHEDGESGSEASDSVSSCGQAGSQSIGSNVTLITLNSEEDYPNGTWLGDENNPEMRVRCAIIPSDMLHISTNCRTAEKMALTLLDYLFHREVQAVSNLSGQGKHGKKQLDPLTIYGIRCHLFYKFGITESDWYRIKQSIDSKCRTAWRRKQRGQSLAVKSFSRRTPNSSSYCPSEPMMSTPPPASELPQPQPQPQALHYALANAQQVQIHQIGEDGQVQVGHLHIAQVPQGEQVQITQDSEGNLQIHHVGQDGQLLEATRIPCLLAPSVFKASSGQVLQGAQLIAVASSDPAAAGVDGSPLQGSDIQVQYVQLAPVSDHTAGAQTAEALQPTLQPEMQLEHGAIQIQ
The experiment in a line: ITC; ITC: 20 mM Tris pH 7.5, 200 mM NaCl, 2 mM beta-mercaptoethanol, 20 C; EMSA: 20 mM Tris pH 7.0, 200 mM NaCl, 2 mM DTT, 4 C, 1.2% agarose in TAE. Particulars: protein: recombinant; tags: His-SUMO or His-MBP, cleaved; chain copies: 4; blunt, self-complementary.

The target in series [4] is T4, BANP BEN S313A (human, UniProt Q8N9N5 205-325, S313A).
T4 sequence: T2 sequence with S109A
The description is as above. Particulars: protein: recombinant; tags: His-SUMO or His-MBP, cleaved; chain copies: 2; blunt, self-complementary.

Series [5] concerns the target T5, BANP BEN S310A (human, UniProt Q8N9N5 205-325, S310A).
T5 sequence: T2 sequence with S106A
The description is as above. Particulars: protein: recombinant; tags: His-SUMO or His-MBP, cleaved; chain copies: 2; blunt, self-complementary.

Series [6] addresses T6, BANP BEN-DBD (human, UniProt Q8N9N5 205-519).
T6 sequence: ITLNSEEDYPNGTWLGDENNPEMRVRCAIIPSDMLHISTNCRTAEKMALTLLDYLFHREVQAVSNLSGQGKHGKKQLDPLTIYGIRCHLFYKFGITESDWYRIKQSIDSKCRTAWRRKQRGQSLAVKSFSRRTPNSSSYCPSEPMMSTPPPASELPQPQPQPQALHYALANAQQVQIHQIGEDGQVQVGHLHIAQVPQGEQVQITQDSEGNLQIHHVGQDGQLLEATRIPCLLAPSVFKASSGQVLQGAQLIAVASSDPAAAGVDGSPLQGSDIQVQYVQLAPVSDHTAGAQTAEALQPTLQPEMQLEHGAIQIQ
The description is as above. Particulars: protein: recombinant; tags: His-SUMO or His-MBP, cleaved; blunt, self-complementary.

Series [7] concerns the target T7, BANP CC-BEN (ΔDBD) (human, UniProt Q8N9N5 1-360).
T7 sequence: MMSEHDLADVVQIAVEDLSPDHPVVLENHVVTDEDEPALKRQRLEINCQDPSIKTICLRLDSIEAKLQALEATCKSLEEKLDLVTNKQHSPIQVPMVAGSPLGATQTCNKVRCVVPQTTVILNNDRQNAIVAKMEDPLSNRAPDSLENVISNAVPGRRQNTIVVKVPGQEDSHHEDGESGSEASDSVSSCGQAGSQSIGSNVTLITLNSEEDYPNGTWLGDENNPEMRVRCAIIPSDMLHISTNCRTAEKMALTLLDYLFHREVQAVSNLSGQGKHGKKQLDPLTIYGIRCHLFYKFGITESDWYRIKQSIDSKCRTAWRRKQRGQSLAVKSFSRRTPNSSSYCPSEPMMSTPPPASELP
The description is as above. Particulars: protein: recombinant; tags: His-SUMO or His-MBP, cleaved; blunt, self-complementary.

Residue numbers refer to the chain shown, from its start.

B1: 12-CGCG (dsDNA)
DNA 1: ATCTCGCGAGAT
DNA 2: ATCTCGCGAGAT
Consider B1, for which the binding result in series [1] is reported as “no binding”. Moreover, the Kd – broadly, a measure of binding affinity in units of concentration – is 2600 ± 400 nM in series [2]; 3.4 ± 0.6 µM in series [3]; 7.9 ± 1.1 µM in series [4]; 12.8 ± 0.9 µM in series [5]; 3.1 ± 0.3 µM in series [6]; 2900 ± 700 nM in series [7].
